According to article PMC5663869 (2017):
Where no end group is shown, it is not given here.

Columns and labels:
BAZ2B BRD = BAZ2B BRD (human, UniProt Q9UIF8 1-2168); assay: ITC
BAZ2B PHD–BRD = BAZ2B PHD–BRD (human, UniProt Q9UIF8 1-2168); assay: ITC
BAZ2B PHD–BRD, sequence (Q9UIF8 whole entry): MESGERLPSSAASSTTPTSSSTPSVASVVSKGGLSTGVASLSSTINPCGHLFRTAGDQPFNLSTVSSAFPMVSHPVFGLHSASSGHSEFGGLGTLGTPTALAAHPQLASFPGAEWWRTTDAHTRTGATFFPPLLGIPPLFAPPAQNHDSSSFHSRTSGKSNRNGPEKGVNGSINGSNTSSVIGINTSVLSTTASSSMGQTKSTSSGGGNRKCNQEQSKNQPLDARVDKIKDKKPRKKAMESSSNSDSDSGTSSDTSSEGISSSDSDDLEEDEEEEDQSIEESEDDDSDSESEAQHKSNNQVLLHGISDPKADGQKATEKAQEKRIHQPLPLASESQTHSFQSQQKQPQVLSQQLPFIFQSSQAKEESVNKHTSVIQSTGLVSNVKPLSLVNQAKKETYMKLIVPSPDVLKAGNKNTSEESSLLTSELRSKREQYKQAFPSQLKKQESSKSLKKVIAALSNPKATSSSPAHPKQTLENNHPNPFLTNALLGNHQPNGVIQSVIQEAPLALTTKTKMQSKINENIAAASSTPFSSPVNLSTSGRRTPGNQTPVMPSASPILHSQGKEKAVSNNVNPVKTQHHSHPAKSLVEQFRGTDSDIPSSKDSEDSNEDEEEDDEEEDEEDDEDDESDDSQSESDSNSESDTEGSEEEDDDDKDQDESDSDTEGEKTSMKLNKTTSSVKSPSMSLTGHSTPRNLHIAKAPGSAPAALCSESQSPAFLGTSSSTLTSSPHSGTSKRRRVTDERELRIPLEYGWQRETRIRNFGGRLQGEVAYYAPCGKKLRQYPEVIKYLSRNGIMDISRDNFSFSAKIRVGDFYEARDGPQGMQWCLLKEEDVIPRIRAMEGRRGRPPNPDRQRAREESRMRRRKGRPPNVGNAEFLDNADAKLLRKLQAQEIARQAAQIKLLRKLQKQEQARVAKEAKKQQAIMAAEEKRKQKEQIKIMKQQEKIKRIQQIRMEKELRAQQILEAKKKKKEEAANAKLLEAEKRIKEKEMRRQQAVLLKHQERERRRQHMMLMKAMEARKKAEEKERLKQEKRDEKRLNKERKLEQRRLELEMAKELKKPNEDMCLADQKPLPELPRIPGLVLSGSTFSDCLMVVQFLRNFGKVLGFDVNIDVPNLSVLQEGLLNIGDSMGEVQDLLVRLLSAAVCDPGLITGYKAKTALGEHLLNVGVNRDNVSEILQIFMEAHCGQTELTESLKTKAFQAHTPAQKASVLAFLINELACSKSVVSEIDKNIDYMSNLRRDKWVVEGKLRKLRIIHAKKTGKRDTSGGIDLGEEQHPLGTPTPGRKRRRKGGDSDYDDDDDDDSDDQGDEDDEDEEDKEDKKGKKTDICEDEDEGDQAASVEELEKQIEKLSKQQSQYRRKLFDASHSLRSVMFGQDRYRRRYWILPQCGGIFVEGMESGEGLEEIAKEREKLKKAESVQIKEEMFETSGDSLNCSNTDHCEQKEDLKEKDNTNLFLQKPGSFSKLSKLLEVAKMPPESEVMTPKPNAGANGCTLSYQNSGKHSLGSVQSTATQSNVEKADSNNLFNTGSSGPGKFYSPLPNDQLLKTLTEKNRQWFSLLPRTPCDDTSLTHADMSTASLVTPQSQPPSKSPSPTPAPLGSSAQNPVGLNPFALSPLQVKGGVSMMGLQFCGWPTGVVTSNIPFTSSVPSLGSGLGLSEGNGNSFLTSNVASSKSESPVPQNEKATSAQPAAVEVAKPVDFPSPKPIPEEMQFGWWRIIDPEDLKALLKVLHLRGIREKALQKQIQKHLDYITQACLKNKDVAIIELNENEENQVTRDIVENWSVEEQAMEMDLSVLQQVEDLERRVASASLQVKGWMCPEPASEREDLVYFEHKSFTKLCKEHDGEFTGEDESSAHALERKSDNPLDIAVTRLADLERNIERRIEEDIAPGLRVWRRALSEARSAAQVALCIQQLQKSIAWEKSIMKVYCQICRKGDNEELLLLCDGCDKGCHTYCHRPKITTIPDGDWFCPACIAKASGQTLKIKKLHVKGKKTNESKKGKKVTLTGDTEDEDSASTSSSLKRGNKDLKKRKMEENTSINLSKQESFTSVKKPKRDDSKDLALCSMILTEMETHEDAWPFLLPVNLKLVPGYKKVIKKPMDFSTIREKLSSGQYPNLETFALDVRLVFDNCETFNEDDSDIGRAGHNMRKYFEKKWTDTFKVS

BAZ2B BRD, sequence (Q9UIF8 whole entry): as above

Kd (BAZ2B BRD): 8.2 µM | Kd (BAZ2B PHD–BRD): 10 µM
Binder: TGGK(Ac)APRKQLA [histone H3(11–21aa)K14ac peptide]
